Patent US20210395344A1

How the values were obtained:
[1] = molecular target: COVID S1 RBD Fc fusion (Antigen 1) (SARS-CoV-2), P0DTC2; assay: phage ELISA; conditions: remark: other sources report otherwise
[2] = molecular target: SARS-CoV-2 S protein trimer (SARS-CoV-2), P0DTC2; assay: column DB/S-T (format not explained); conditions: remark: other sources report otherwise

B1: 1-5 (antibody, V domains shown)
VH: EVQLLESGGGLVQPGGSLRLSCAASGFTFSSQAMSWVRQAPGKGLEWVSAISGSGGGTYYADSVKGRFTISRDNSKNTLYLQMNSLRAEDTAVYYCAKDRRFGEFDPWGQGTLVTVSS
VL: QSALTQPASVSGSPGQSITISCTGTSSGVGSYNLVSWYQQHPGKAPKLMIYEASKRPSGVSNRFSGSKSGNTASLTISGLQAEDEADYYCCSYAGSYTFAVFGGGTKLTVL
[1]
  ELISA fold over background (fold over background): 1.6
[2]
  Kd: 1.16 µM
